In the supplement of paper PMC6757056:
± gives the standard deviation of the averaged measurements.

B1: library; a variant is named by its letters at N, in order (parent)
chain: GCUGUCACCGGUGCUUGGUACGUUAUAUUCAGCCGGUCUGAUGAGUCUNNNNNNAGACGAAACAGC

Assays:
[1] = variants of: B1; assay: normalized RNA/DNA level without ligand (relative to sTRSVctl = 100) (log10 (% of sTRSVctl)); HEK293T overexpressing SLC46A1; higher = less ribozyme self-cleavage, higher mRNA level; conditions: without (6R,S)-folinic acid; ligand present: no
How it was run: (§1)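 Library plasmids encoding reporter-linked ribozyme switches (mCherry, or eGFP for some folinic acid experiments) were transfected into HEK293T at 4 µg per 6-well well. Ligand, when used, was added 1 h before transfection. Total RNA was extracted with EDTA 72 h later, then reverse-transcribed, amplified, barcoded and sequenced. RNA level was RNA reads over DNA reads, divided by a spiked-in non-cleaving control (or the top 25 sequences), ×100, log10; only sequences with ≥100 DNA reads were kept.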

[2] = variants of: B1; assay: normalized RNA/DNA level with ligand (relative to sTRSVctl = 100) (log10 (% of sTRSVctl)); HEK293T overexpressing SLC46A1; ligand concentration (+) RNA-Seq: 6 mM; higher = less ribozyme self-cleavage, higher mRNA level; conditions: with (6R,S)-folinic acid; ligand present: yes
How it was run: as §1

Variant | normalized RNA/DNA level without ligand (log10) [1] | normalized RNA/DNA level with ligand (log10) [2]
GGACAC | 2.013 ± 0.013 | 2.03 ± 0.039
GGACAU | 2.018 ± 0.011 | 2.011 ± 0.016
CGAUCG | 2.042 ± 0.013 | 2.05 ± 0.034
CGAUCC | 2.05 ± 0.023 | 2.06 ± 0.036
CGAUCU | 2.062 ± 0.0057 | 2.06 ± 0.03
CGAUCA | 2.008 ± 0.0093 | 2.04 ± 0.05
AGACGG | 1.934 ± 0.011 | 2.01 ± 0.027
AGACGU | 1.976 ± 0.0062 | 2.01 ± 0.026
CGAGGC | 2.03 ± 0.013 | 2.04 ± 0.031
CGAGGA | 2.019 ± 0.0022 | 2.04 ± 0.029
CGAGGU | 2.02 ± 0.02 | 2.02 ± 0.054
UGAUAG | 1.7093 ± 0.0017 | 1.96 ± 0.049
UGAUAU | 1.92 ± 0.034 | 1.984 ± 0.014
AGAGUG | 1.71 ± 0.035 | 1.98 ± 0.039
AGAGUU | 2.002 ± 0.0079 | 2.011 ± 0.0021
AGAGUA | 1.94 ± 0.0059 | 2.01 ± 0.033
AGAGUC | 2.059 ± 0.0045 | 2.02 ± 0.034
UGAAUU | 1.986 ± 0.0089 | 2 ± 0.036
AGCAAC | 2.004 ± 0.0095 | 2.01 ± 0.038
AGCAAG | 1.935 ± 0.0032 | 2.01 ± 0.025
AGCAAU | 1.995 ± 0.0032 | 2.01 ± 0.033
AGCCGC | 2.037 ± 0.0083 | 2.02 ± 0.044
AGCCGA | 2.004 ± 0.0033 | 2.02 ± 0.025
AGCCGG | 2.068 ± 0.019 | 2.01 ± 0.045

Variant | normalized RNA/DNA level without ligand (log10) [1] | normalized RNA/DNA level with ligand (log10) [2]
UGAGCA | 1.95 ± 0.014 | 2.0212 ± 0.00076
UGAGCC | 2.038 ± 0.0055 | 2.04 ± 0.041
UGACCG | 1.983 ± 0.0022 | 2.01 ± 0.023
UGACCC | 2.041 ± 0.011 | 2.02 ± 0.026
UGACCU | 2.058 ± 0.011 | 2.06 ± 0.034
AGACAA | 2.004 ± 0.0066 | 2.01 ± 0.03
AGACAU | 1.994 ± 0.0052 | 2.02 ± 0.026
AGACAC | 2.0193 ± 0.00083 | 2.01 ± 0.028
CGCCUA | 2.05 ± 0.0096 | 2.05 ± 0.061
AGAGGA | 1.929 ± 0.014 | 2.02 ± 0.039
AGAGGG | 1.78 ± 0.02 | 2.01 ± 0.015
AGAGGC | 2.018 ± 0.02 | 2.01 ± 0.04
AGAGGU | 1.889 ± 0.0033 | 2 ± 0.076
CGCCCC | 2.082 ± 0.017 | 2.04 ± 0.057
CGCCCA | 2.068 ± 0.0022 | 2.06 ± 0.033
CGCCCU | 2.09 ± 0.04 | 2.092 ± 0.017
CGCCCG | 2.03 ± 0.029 | 2.031 ± 0.0094
AGAAUU | 2.005 ± 0.02 | 2.021 ± 0.008
CGACUG | 2.028 ± 0.0025 | 2.014 ± 0.011
CGACUA | 2.014 ± 0.0047 | 2.042 ± 0.0086
CGACUU | 2.01 ± 0.035 | 2.05 ± 0.025
CGACUC | 2.08 ± 0.023 | 2.04 ± 0.07
AGCACA | 2.0177 ± 0.00097 | 2 ± 0.04
AGCACG | 1.99 ± 0.033 | 2.025 ± 0.01

Variant | normalized RNA/DNA level without ligand (log10) [1] | normalized RNA/DNA level with ligand (log10) [2]
AGCACC | 2.08 ± 0.031 | 2 ± 0.03
GGCAAC | 2.057 ± 0.0039 | 2.04 ± 0.0099
GGCAAU | 2.057 ± 0.01 | 2.04 ± 0.03
GGCAAA | 2.069 ± 0.0036 | 2.04 ± 0.044
GGCAAG | 2.034 ± 0.007 | 2.003 ± 0.017
UGACGU | 1.97 ± 0.03 | 2.02 ± 0.023
GGAGCU | 2.045 ± 0.017 | 2.04 ± 0.04
GGAGCG | 1.939 ± 0.011 | 2.02 ± 0.041
GGAGCA | 1.978 ± 0.0021 | 2.02 ± 0.022
CGAGAU | 1.957 ± 0.011 | 1.99 ± 0.025
CGAGAC | 1.947 ± 0.015 | 1.974 ± 0.012
CGAGAG | 1.964 ± 0.015 | 1.964 ± 0.0059
GGCAUG | 2.064 ± 0.0071 | 2.03 ± 0.033
GGCAUU | 2.08 ± 0.025 | 2.04 ± 0.039
GGCAUC | 2.055 ± 0.014 | 2.03 ± 0.033
AGAUUG | 1.89 ± 0.014 | 2.004 ± 0.018
AGAUUU | 2.0581 ± 0.0011 | 2.04 ± 0.024
AGAUAG | 1.9299 ± 0.00079 | 2.01 ± 0.041
AGAUAC | 1.983 ± 0.0026 | 2.022 ± 0.02
AGAUAU | 1.97 ± 0.011 | 2.04 ± 0.038
CGCAAG | 2.011 ± 0.0045 | 2.02 ± 0.025
CGCAAU | 1.9357 ± 0.0015 | 1.968 ± 0.014
CGCAAA | 1.9697 ± 0.001 | 1.988 ± 0.0069
AGAUCC | 2.058 ± 0.0091 | 2.033 ± 0.02

Variant | normalized RNA/DNA level without ligand (log10) [1] | normalized RNA/DNA level with ligand (log10) [2]
AGAUCG | 1.992 ± 0.0077 | 2.013 ± 0.019
AGAUCU | 2.0242 ± 0.00035 | 2.05 ± 0.032
AGAGAG | 1.67 ± 0.022 | 1.966 ± 0.015
AGAGAC | 1.981 ± 0.0066 | 2.009 ± 0.016
AGAGAA | 1.953 ± 0.0039 | 1.99 ± 0.025
AGAGAU | 1.982 ± 0.011 | 1.99 ± 0.023
UGCAUC | 2.07 ± 0.032 | 2.035 ± 0.015
UGCAUA | 1.948 ± 0.015 | 1.99 ± 0.068
UGCCCU | 2.061 ± 0.0087 | 2.06 ± 0.043
UGCCCG | 1.95 ± 0.022 | 2.01 ± 0.07
UGCCCA | 2.007 ± 0.0092 | 1.99 ± 0.018
UGCCCC | 2.03 ± 0.04 | 2.01 ± 0.07
CGACGA | 2.001 ± 0.011 | 2 ± 0.05
CGACGU | 1.995 ± 0.002 | 2.02 ± 0.021
CGACGC | 2.03 ± 0.0041 | 2.01 ± 0.038
CGACGG | 1.926 ± 0.014 | 1.973 ± 0.015
CGCCGC | 2.062 ± 0.0024 | 2.03 ± 0.047
CGCCGA | 2.027 ± 0.0027 | 2.08 ± 0.044
CGCCGG | 2.03 ± 0.026 | 2.034 ± 0.017
CGCCGU | 2.038 ± 0.0097 | 2.05 ± 0.065
UGAGUU | 1.943 ± 0.0073 | 1.99 ± 0.035
UGAGUC | 2.011 ± 0.012 | 2 ± 0.049
UGCAAC | 1.95 ± 0.0091 | 1.99 ± 0.029
UGCAAG | 1.778 ± 0.01 | 1.96 ± 0.029

Variant | normalized RNA/DNA level without ligand (log10) [1] | normalized RNA/DNA level with ligand (log10) [2]
AGAUGC | 2.017 ± 0.0026 | 2.03 ± 0.021
AGAUGU | 1.971 ± 0.0095 | 2.02 ± 0.036
GGACGG | 2.008 ± 0.015 | 2.04 ± 0.033
GGACGC | 1.949 ± 0.0027 | 1.96 ± 0.025
CGCACC | 2.079 ± 0.014 | 2.07 ± 0.063
CGCACU | 2.0385 ± 0.00015 | 2.01 ± 0.034
CGCACG | 2.046 ± 0.0062 | 2.026 ± 0.018
CGCACA | 1.989 ± 0.0068 | 1.98 ± 0.026
CGAAUU | 2 ± 0.026 | 2.01 ± 0.037
UGACUC | 2.075 ± 0.011 | 2.042 ± 0.0068
UGACUU | 2.006 ± 0.014 | 2.017 ± 0.015
UGACUA | 1.963 ± 0.0017 | 2.0143 ± 0.0019
CGAUUC | 2.089 ± 0.019 | 2.08 ± 0.048
CGAUUU | 1.984 ± 0.0069 | 2 ± 0.026
CGAUUA | 1.958 ± 0.017 | 1.992 ± 0.013
CGAUUG | 2.028 ± 0.018 | 2.02 ± 0.035
CGAUGC | 2.039 ± 0.0072 | 2.008 ± 0.0096
CGAUGA | 2.011 ± 0.0023 | 2.02 ± 0.078
CGAUGG | 1.928 ± 0.017 | 1.972 ± 0.019
CGAUGU | 1.98 ± 0.0073 | 1.99 ± 0.047
